Experimental data taken from patent US20230036655A1 (OTSUKA PHARMACEUTICAL, published 2023).

T1: human GDF15 (hGDF15), mature, wild-type (human, UniProt Q99988 197-308)
T1 construct: Bought recombinant protein: R&D Systems 957-GD-025/CF in most assays, 9279-GD in the crystal and the GDF15/GFRAL/RET assay; It was biotinylated in the GFRAL assay; also called hGDF15 (WT); rhGDF15
T1 sequence: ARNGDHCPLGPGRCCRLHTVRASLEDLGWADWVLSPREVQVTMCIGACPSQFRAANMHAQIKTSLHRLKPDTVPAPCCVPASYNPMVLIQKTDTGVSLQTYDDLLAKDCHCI


Key:
[1] = molecular target: T1, human GDF15 (hGDF15), mature, wild-type; test: ELISA, hGDF15 immobilised; binding at 5 ng/mL antibody, HuMAB2 = 100
Method: A 100 μL hGDF15 solution (0.4 μg/ml) was added to a 96-well plate and left at 4° C. until the next morning to prepare a plate for ELISA. To the plate, 1% BSA was added for blocking for 1 hour. A dilution series of the culture supernatant containing the variant antibody was prepared from 30-fold dilution (common ratio of dilution factor was 3), and 100 μL of each solution was added to the ELISA plate and left for 2 hours. As a secondary antibody, an HRP conjugated anti-human IgG antibody (Gene Tex, GTX26759) (20000-fold dilution) was added and left for 1 hour. TMB (Sigma, T-0440) was used for color development reaction, and 2N sulfuric acid was used as a reaction terminator. The absorbance was measured at 450 nm.

[2] = molecular target: T1, human GDF15 (hGDF15), mature, wild-type; test: ELISA, hGDF15 immobilised

Binder	fold change in binding strength compared to HuMAB2 [1] [fold]	binding result [2]
H3-L48K (antibody, human IgG1, kappa, V domains shown, In the label, L means the L chain; Tested as culture supernatant; also called HuMAB2 variant L48K) VH: QVQLQESGPGLVKPSETLSLTCTVSGFSINSDCYWIWIRQPPGKGLEYIGYTFYSGITYYNPSLASRTTISRDTSKNQFSLKLSSVTAADTAVYYCARDCDYAMDYWGQGTLVTVSS VL: DIQMTQSPSSLSASVGDRVTITCRASQKISNYLNWYQQKPGKAVKLLIHYTSTLHSGVPSRFSGSGSGTDYTLTISSLQPEDFATYFCQQGNTLPWTFGQGTKLEIKR	~1.5	
H3-L112D (antibody, human IgG1, kappa, V domains shown, In the label, L means the L chain; Tested as culture supernatant; also called HuMAB2 variant L112D) VH: QVQLQESGPGLVKPSETLSLTCTVSGFSINSDCYWIWIRQPPGKGLEYIGYTFYSGITYYNPSLASRTTISRDTSKNQFSLKLSSVTAADTAVYYCARDCDYAMDYWGQGTLVTVSS VL: DIQMTQSPSSLSASVGDRVTITCRASQDISNYLNWYQQKPGKAVKLLIHYTSTLHSGVPSRFSGSGSGTDYTLTISSLQPEDFATYFCQQGDTLPWTFGQGTKLEIKR	~1.5	
H120F-L7 (antibody, human IgG1, kappa, V domains shown, In the label, H means the H chain; Tested as culture supernatant; also called HuMAB2 variant H120F) VH: QVQLQESGPGLVKPSETLSLTCTVSGFSINSDCYWIWIRQPPGKGLEYIGYTFYSGITYYNPSLASRTTISRDTSKNQFSLKLSSVTAADTAVYYCARDCDFAMDYWGQGTLVTVSS VL: DIQMTQSPSSLSASVGDRVTITCRASQDISNYLNWYQQKPGKAVKLLIHYTSTLHSGVPSRFSGSGSGTDYTLTISSLQPEDFATYFCQQGNTLPWTFGQGTKLEIKR	~1.5	
H48S-L7 (antibody, human IgG1, kappa, V domains shown, Tested as culture supernatant; also called HuMAB2 variant H48S) VH: QVQLQESGPGLVKPSETLSLTCTVSGFSISSDCYWIWIRQPPGKGLEYIGYTFYSGITYYNPSLASRTTISRDTSKNQFSLKLSSVTAADTAVYYCARDCDYAMDYWGQGTLVTVSS VL: DIQMTQSPSSLSASVGDRVTITCRASQDISNYLNWYQQKPGKAVKLLIHYTSTLHSGVPSRFSGSGSGTDYTLTISSLQPEDFATYFCQQGNTLPWTFGQGTKLEIKR	~1.5	
H83R-L7 (antibody, human IgG1, kappa, V domains shown, In the label, H means the H chain; Tested as culture supernatant; also called HuMAB2 variant H83R) VH: QVQLQESGPGLVKPSETLSLTCTVSGFSINSDCYWIWIRQPPGKGLEYIGYTFYSGITYYNPSLRSRTTISRDTSKNQFSLKLSSVTAADTAVYYCARDCDYAMDYWGQGTLVTVSS VL: DIQMTQSPSSLSASVGDRVTITCRASQDISNYLNWYQQKPGKAVKLLIHYTSTLHSGVPSRFSGSGSGTDYTLTISSLQPEDFATYFCQQGNTLPWTFGQGTKLEIKR	~1.5	

The next lines start with the values.

fold change in binding strength compared to HuMAB2 [1] [fold]	binding result [2]	Binder
	binds	H3-L72F (antibody, human IgG1, kappa, V domains shown, In the label, L means the L chain; also called HuMAB2 variant L72F) VH: QVQLQESGPGLVKPSETLSLTCTVSGFSINSDCYWIWIRQPPGKGLEYIGYTFYSGITYYNPSLASRTTISRDTSKNQFSLKLSSVTAADTAVYYCARDCDYAMDYWGQGTLVTVSS VL: DIQMTQSPSSLSASVGDRVTITCRASQDISNYLNWYQQKPGKAVKLLIHYTFTLHSGVPSRFSGSGSGTDYTLTISSLQPEDFATYFCQQGNTLPWTFGQGTKLEIKR
	binds	H49R-L7 (antibody, human IgG1, kappa, V domains shown, In the label, H means the H chain; also called HuMAB2 variant H49R) VH: QVQLQESGPGLVKPSETLSLTCTVSGFSINRDCYWIWIRQPPGKGLEYIGYTFYSGITYYNPSLASRTTISRDTSKNQFSLKLSSVTAADTAVYYCARDCDYAMDYWGQGTLVTVSS VL: DIQMTQSPSSLSASVGDRVTITCRASQDISNYLNWYQQKPGKAVKLLIHYTSTLHSGVPSRFSGSGSGTDYTLTISSLQPEDFATYFCQQGNTLPWTFGQGTKLEIKR
	binds	H49D-L7 (antibody, human IgG1, kappa, V domains shown, In the label, H means the H chain; also called HuMAB2 variant H49D) VH: QVQLQESGPGLVKPSETLSLTCTVSGFSINDDCYWIWIRQPPGKGLEYIGYTFYSGITYYNPSLASRTTISRDTSKNQFSLKLSSVTAADTAVYYCARDCDYAMDYWGQGTLVTVSS VL: DIQMTQSPSSLSASVGDRVTITCRASQDISNYLNWYQQKPGKAVKLLIHYTSTLHSGVPSRFSGSGSGTDYTLTISSLQPEDFATYFCQQGNTLPWTFGQGTKLEIKR
	binds	H71Y-L7 (antibody, human IgG1, kappa, V domains shown, In the label, H means the H chain; also called HuMAB2 variant H71Y) VH: QVQLQESGPGLVKPSETLSLTCTVSGFSINSDCYWIWIRQPPGKGLEYIGYTYYSGITYYNPSLASRTTISRDTSKNQFSLKLSSVTAADTAVYYCARDCDYAMDYWGQGTLVTVSS VL: DIQMTQSPSSLSASVGDRVTITCRASQDISNYLNWYQQKPGKAVKLLIHYTSTLHSGVPSRFSGSGSGTDYTLTISSLQPEDFATYFCQQGNTLPWTFGQGTKLEIKR
	binds	H3-L74H (antibody, human IgG1, kappa, V domains shown, In the label, L means the L chain; also called HuMAB2 variant L74H) VH: QVQLQESGPGLVKPSETLSLTCTVSGFSINSDCYWIWIRQPPGKGLEYIGYTFYSGITYYNPSLASRTTISRDTSKNQFSLKLSSVTAADTAVYYCARDCDYAMDYWGQGTLVTVSS VL: DIQMTQSPSSLSASVGDRVTITCRASQDISNYLNWYQQKPGKAVKLLIHYTSTHHSGVPSRFSGSGSGTDYTLTISSLQPEDFATYFCQQGNTLPWTFGQGTKLEIKR
